Measurements: US8344120B2, “Nucleic acid molecules encoding rage fusion proteins” (TransTech Pharma, Inc., priority 2006, dated 2013)

Assays:
amyloid-beta (Abeta) = target: T1, amyloid-beta (Abeta) (Homo sapiens, UniProt P05067); experiment: In vitro ligand binding ELISA, immobilized amyloid-beta; conditions: ligand 5 micrograms per well; fusion protein at increasing dilutions, 37° C. one hour
T1 construct: Amyloid Beta (1-40) from Biosource; purchased Biosource
Description: For example, the RAGE fusion protein may be used in a binding assay to identify potential RAGE ligands. In one example embodiment of such a binding assay, a known RAGE ligand may coated onto a solid substrate (e.g., Maxisorb plates) at a concentration of about 5 micrograms per well, where each well contains a total volume of about 100 microliters (4). The plates may be incubated at 4° C. overnight to allow the ligand to absorb or bind to the substrate. Alternatively, shorter incubation periods at higher temperature (e.g., room temperature) may be used. […] The RAGE fusion protein bound to the immobilized ligand may be detected in a variety of ways. […] The bound complex may be detected by adding the alkaline phosphatase substrate, para-nitrophenylphosphate (PNPP), and measuring conversion of PNPP to para-nitrophenol (PNP) as an increase in absorbance at 405 nm. […] In the absence of ligand (i.e., coating with only BSA) there was no increase in absorbance. […] Binding was detected by the addition of an immunodetection complex containing a monoclonal mouse anti-human IgG1 diluted 1:11,000 to a final assay concentration (FAC) of 21 ng/100 μL, a biotinylated goat anti-mouse IgG diluted 1:500, to a FAC of […], and an avidin-linked alkaline phosphatase. […]

[1] = test system: diabetic rat model of restenosis; experiment: Diabetic rat model of restenosis; assay type: in vivo, rats; conditions: for Intimal area / Medial area: IP, 21 days
Description: Use of the RAGE fusion proteins in the treatment of diabetes related pathology is illustrated in FIG. 14.
In these experiments, balloon injury of left common carotid artery was performed in Zucker diabetic and nondiabetic rats using standard procedure. […] A maintenance dose was delivered every other day until day 7 after injury (i.e., at day 1, 3, 5 and 7 after injury). The maintenance dose was high=1 mg/animal for one group, or low=0.3 mg/animal for the second group. To measure vascular smooth muscle cell (VSMC) proliferation, animals were sacrificed at 4 days and 21 days after injury.
For the measurement of cell proliferation, 4 day animals received intraperitoneal injection of bromodeoxyuridine (BrDdU) 50 mg/kg at 18, 12, and 2 hours before euthanasia. After sacrifice, the entire left and right carotid arteries were harvested. Specimens were stored in Histochoice for at least 24 hours before embedding. Assessment of VSMC proliferation was performed using mouse anti-BrdU monoclonal antibody. A fluorescence labeled goat anti-mouse secondary antibody was applied. The number of BrdU-positive nuclei per section were counted by two observers blinded to the treatment regimens.
The remaining rats were sacrificed at 21 days for morphometric analysis. Morphometric analyses were performed by an observer blinded to the study groups, using computerized digital microscopic planimetry software Image-Pro Plus on serial sections, ([…]) carotid arteries stained by Van Gieson staining. All data were expressed as mean±SD. Statistical analysis was performed with use of SPSS software. Continuous variables were compared using unpaired t tests. A values of P≦0.05 was considered to be statistically significant.
In FIG. 14B, the y-axis represents the number of BrdU proliferating cells.

[2] = High dose 1.0 mg/animal qod × 4, loading dose 3 mg/animal
[3] = Low dose 0.3 mg/animal qod × 4, loading dose 3 mg/animal

T1 sequence (P05067 672-711 limits assumed): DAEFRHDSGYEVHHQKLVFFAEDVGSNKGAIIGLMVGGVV

B1: TTP-4000: four domain RAGE fusion protein: human RAGE N-terminal sequence (to position 251) linked to human IgG Fc (γ1) without hinge; SEQ ID NO: 34/56 (protein)
chain: QNITARIGEPLVLKCKGAPKKPPQRLEWKLNTGRTEAWKVLSPQGGGPWDSVARVLPNGSLFLPAVGIQDEGIFRCQAMNRNGKETKSNYRVRVYQIPGKPEIVDSASELTAGVPNKVGTCVSEGSYPAGTLSWHLDGKPLVPNEKGVSVKEQTRRHPETGLFTLQSELMVTPARGGDPRPTFSCSFSPGLPRHRALRTAPIQPRVWEPVPLEEVQLVVEPEGGAVAPPSVFLFPPKPKDTLMISRTPEVTCVVVDVSHEDPEVKFNWYVDGVEVHNAKTKPREEQYNSTYRVVSVLTVLHQDWLNGKEYKCKVSNKALPAPIEKTISKAKGQPREPQVYTLPPSRDELTKNQVSLTCLVKGFYPSDIAVEWESNGQPENNYKTTPPVLDSDGSFFLYSKLTVDKSRWQQGNVFSCSVMHEALHNHYTQKSLSLSPGK
binding to immobilized amyloid-beta (increase in absorbance at 405 nm) (amyloid-beta (Abeta)): specifically interact
vascular smooth muscle cell proliferation (BrdU-positive nuclei) ([1]; 4 days after injury, dose-responsive): significantly reduced
Intimal area [1, 2]: 0.16 ± 0.02 mm^2
Medial area [1, 2]: 0.11 ± 0.01 mm^2
Intimal area [1, 3]: 0.18 ± 0.04 mm^2
Medial area [1, 3]: 0.11 ± 0.02 mm^2
